In the assay the target is human VISTA, native (on anti-CD3-activated human T cells and PBMCs) (human (homo sapiens)).

Results on 1 substance are retold here after patent US11649285B2.

Bounds are passed on as bounds.

control recombinant human IgG1 Fc showed a division of CFSE-labeled human CD3+ T cells with plate-bound anti-CD3 and control rhIgG1Fc, flow cytometry (% CD3+ T cells dividing (72 hours)) above 40.
